Reference: the supplement of paper PMC10567573

B1: HDAC6 (parent)
chain: QYMNEGELRVLADTYDSVYLHPNS
B2: VAMP4 (parent)
chain: FLRGPSGPRFGPRNDKIKHVQNQV

Variants of: B1
Test: protein stability index of a GFP-peptide fusion (GPS, HEK-293T) (PSI 1-6); higher = more stable
Settings: c terminus: a fixed tail appended
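Further: lentivirally expressed fusions sorted by FACS into six bins by GFP to DsRed ratio, PSI derived from sequencing read proportions per bin multiplied by bin number.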

Variant	protein stability index
QYMNEGDLRVLADTYDSVYLHPNS [E7D]	2.04
QYMNDGELRVLADTYDSVYLHPNS [E5D]	1.88
QYMNEGELRVLADTYDVVYLHPNS [S17V]	2.09
QYMNEGELRVLADTYDDVYLHPNS [S17D]	2.56
QYMNEGELRVLAETYDSVYLHPNS [D13E]	1.6
QYMNEGELRVLAFTYDSVYLHPNS [D13F]	3.63
QYMNEGEERVLADTYDSVYLHPNS [L8E]	3.51
QYMNEGELRKLADTYDSVYLHPNS [V10K]	2.01
QYMNEGELRILADTYDSVYLHPNS [V10I]	1.84
QYMNEGELRQLADTYDSVYLHPNS [V10Q]	3.27
QYMNEMELRVLADTYDSVYLHPNS [G6M]	1.6
QYMNEGELRVLFDTYDSVYLHPNS [A12F]	2.89
QYMNEGELRVLPDTYDSVYLHPNS [A12P]	3.17
QYMYEGELRVLADTYDSVYLHPNS [N4Y]	1.93
QYMNEGELRVLADTYDSLYLHPNS [V18L]	1.95
QYMNEGELRVLADTYDSVYLHPNQ [S24Q]	3.76
QYMNEGELRVLADTYDSVYLHPNK [S24K]	1.46
QYMNEGELRVLADTYDSVYLHPNR [S24R]	2.4
QYMNEGELRVLADTYDSVYLHKNS [P22K]	1.96
QYMNEGELRVLADTDDSVYLHPNS [Y15D]	3.86
QYMNEGELRVLADTVDSVYLHPNS [Y15V]	2.38
QYMNEGELRVLADTYDSVYLWPNS [H21W]	1.84
QYMNEGELRVLADTYDSVYLTPNS [H21T]	1.38

Variants of: B2
Test: as above
Settings: c terminus: a fixed tail appended

Variant	protein stability index
FLRGPSGPRFGPRNDKIKHGQNQV [V20G]	2.62
FLRGPSGPRFGPRNDKIKHIQNQV [V20I]	2.69
FLRGPSGPRFGPRNDKIKHEQNQV [V20E]	3.91
FLRGPSGPRFGPRNDKIKHQQNQV [V20Q]	2.24
FLRGPSGPRFGPRNDKIKHNQNQV [V20N]	2.91
FLRGPSGPRFGPRNDKIKHWQNQV [V20W]	2.25
FLRGPSGPRFGPRNDKIKHKQNQV [V20K]	3.23
FLRGPSGPRFGPRNDKIKHTQNQV [V20T]	2.87
FLRGPSGPRFGPRNDKIKHDQNQV [V20D]	3.72
FLRGPSGPRFGPRNDKIKHHQNQV [V20H]	3.3
FLRGPSGPRFGPRNDKIKHCQNQV [V20C]	2.15
FLRGPSGPRFGPRNDKIKHRQNQV [V20R]	3.26
FLRGPSGPRFGPRNDKIKHAQNQV [V20A]	2.63
FLRGPSGPRFGPRNDKIKHLQNQV [V20L]	2.9
FLRGPSGPRFGPRNDKIKHYQNQV [V20Y]	2.46
FLRGPSGPRFGPRNDKIKHVQNQP [V24P]	2.94
FLRGPSGPRFGPRNDKIKHVQNQQ [V24Q]	2.76
FLRGPSGPRFGPRNDKIKHVQNQT [V24T]	3.08
FLRGPSGPRFGPRNDKIKHVQNQM [V24M]	3.02
FLRGPSGPRFGPRNDKIKHVQNQK [V24K]	3.46
FLRGPSGPRFGPRNDKIKHVQNQF [V24F]	2.53
FLRGPSGPRFGPRNDKIKHVQNQI [V24I]	2.6
FLRGPSGPRFGPRNDKIKHVQNQE [V24E]	2.89
FLRGPSGPRFGPRNDKIKHVQNQR [V24R]	3

Variant	protein stability index
FLRGPSGPRFGPRNDKIKHVQNQD [V24D]	3.4
FLRGPSGPRFGPRNDKIKHVQNQY [V24Y]	3
FLRGPSGPRFGPRNDKIKHVQNQL [V24L]	2.67
FLRGPSGPRFGPRNDKIKHVQNQH [V24H]	3.18
FLRGPSGPRFGPRNDKIKHVQNQS [V24S]	2.9
FLRGPSGPRFGPRNDKIKHVQNQA [V24A]	2.85
FLRGPSGPRFGPRNDKIKHVQNQN [V24N]	3.49
FLRGPSGPRFGPRNDKIKHVQNQC [V24C]	2.22
FLRGPSGPRFGPRNDKIKHVQNQW [V24W]	2.82
FLRGPSGPRFGPRNDKIKHVQNDV [Q23D]	3.04
FLRGPSGPRFGPRNDKIKHVQNGV [Q23G]	1.8
FLRGPSGPRFGPRNDKIKHVQNNV [Q23N]	2.98
FLRGPSGPRFGPRNDKIKHVQNIV [Q23I]	2.14
FLRGPSGPRFGPRNDKIKHVQNEV [Q23E]	3.39
FLRGPSGPRFGPRNDKIKHVQNWV [Q23W]	1.84
FLRGPSGPRFGPRNDKIKHVQNVV [Q23V]	2.6
FLRGPSGPRFGPRNDKIKHVQNLV [Q23L]	2.81
FLRGPSGPRFGPRNDKIKHVQNKV [Q23K]	2.22
FLRGPSGPRFGPRNDKIKHVQNRV [Q23R]	2.87
FLRGPSGPRFGPRNDKIKHVQNMV [Q23M]	2.2
FLRGPSGPRFGPRNDKIKHVQNPV [Q23P]	3.04
FLRGPSGPRFGPRNDKIKHVQNAV [Q23A]	2.81
FLRGPSGPRFGPRNDKIKHVQNSV [Q23S]	2.54
FLRGPSGPRFGPRNDKIKHVQNHV [Q23H]	2.55

Variant	protein stability index
FLRGPSGPRFGPRNDKIKHVQNCV [Q23C]	2.23
FLRGPSGPRFGPRNVKIKHVQNQV [D15V]	2.85
FLRGPSGPRFGPRNMKIKHVQNQV [D15M]	2.05
FLRGPSGPRFGPRNKKIKHVQNQV [D15K]	2.23
FLRGPSGPRFGPRNPKIKHVQNQV [D15P]	3.23
FLRGPSGPRFGPRNQKIKHVQNQV [D15Q]	2.5
FLRGPSGPRFGPRNYKIKHVQNQV [D15Y]	2.1
FLRGPSGPRFGPRNHKIKHVQNQV [D15H]	3.02
FLRGPSGPRFGPRNNKIKHVQNQV [D15N]	2.7
FLRGPSGPRFGPRNTKIKHVQNQV [D15T]	2.26
FLRGPSGPRFGPRNIKIKHVQNQV [D15I]	3.2
FLRGPSGPRFGPRNSKIKHVQNQV [D15S]	2.19
FLRGPSGPRFGPRNLKIKHVQNQV [D15L]	2.17
FLRGPSGPRFGPRNRKIKHVQNQV [D15R]	2.69
FLRGPSGPRFGPRNWKIKHVQNQV [D15W]	1.39
FLRGPSGPRFGPRNDKSKHVQNQV [I17S]	2.34
FLRGPSGPRFGPRNDKCKHVQNQV [I17C]	2.87
FLRGPSGPRFGPRNDKPKHVQNQV [I17P]	2.84
FLRGPSGPRFGPRNDKTKHVQNQV [I17T]	3.16
FLRGPSGPRFGPRNDKRKHVQNQV [I17R]	3
FLRGPSGPRFGPRNDKAKHVQNQV [I17A]	2.88
FLRGPSGPRFGPRNDKKKHVQNQV [I17K]	2.81
FLRGPSGPRFGPRNDKQKHVQNQV [I17Q]	2.72
FLRGPSGPRFGPRNDKNKHVQNQV [I17N]	3.54

Variant	protein stability index
FLRGPSGPRFGPRNDKDKHVQNQV [I17D]	3.57
FLRGPSGPRFGPRNDKLKHVQNQV [I17L]	2.78
FLRGPSGPRFGPRNDKVKHVQNQV [I17V]	2.5
FLRGPSGPRFGPRNDKWKHVQNQV [I17W]	1.53
FLRGPSGPRFGPRNDKHKHVQNQV [I17H]	3.42
FLRGPSGPRFGPRNDKFKHVQNQV [I17F]	2.81
FLRGPSGPRFGPRNDKEKHVQNQV [I17E]	4.11
FLRGPSGPRFGPRNDKIKHVQSQV [N22S]	3.25
FLRGPSGPRFGPRNDKIKHVQAQV [N22A]	2.58
FLRGPSGPRFGPRNDKIKHVQFQV [N22F]	1.68
FLRGPSGPRFGPRNDKIKHVQQQV [N22Q]	2.48
FLRGPSGPRFGPRNDKIKHVQMQV [N22M]	1.57
FLRGPSGPRFGPRNDKIKHVQEQV [N22E]	3.94
FLRGPSGPRFGPRNDKIKHVQVQV [N22V]	1.74
FLRGPSGPRFGPRNDKIKHVQLQV [N22L]	2.27
FLRGPSGPRFGPRNDKIKHVQDQV [N22D]	3.48
FLRGPSGPRFGPRNDKIKHVQTQV [N22T]	3.02
FLRGPSGPRFGPRNDKIKHVQWQV [N22W]	1.42
FLRGPSGPRFGPRNDKIKHVQCQV [N22C]	2.56
FLRGPSGPRFGPRNDKIKHVQGQV [N22G]	2.77
FLRGPSGPRFGPRNDKIKHVQYQV [N22Y]	2.14
FLRGPSGPRFGPRNDKIKHVQRQV [N22R]	2.25
FLRGPSGPRFGPRNDKIKHVQIQV [N22I]	1.51
FLRGPSGPRFGPRNDKIKHVQKQV [N22K]	2.88

Variant	protein stability index
FLRGPSGPRFGPRNDKIKHVQPQV [N22P]	2.53
FLRGPSGPRFGPRNDKIKHVQHQV [N22H]	2.18
FLRGPSGPRFGPRNDKIRHVQNQV [K18R]	1.75
FLRGPSGPRFGPRNDKIDHVQNQV [K18D]	2.74
FLRGPSGPRFGPRNDKICHVQNQV [K18C]	2.04
FLRGPSGPRFGPRNDKIWHVQNQV [K18W]	1.48
FLRGPSGPRFGPRNDKIQHVQNQV [K18Q]	3.34
FLRGPSGPRFGPRNDKISHVQNQV [K18S]	3.11
FLRGPSGPRFGPRNDKILHVQNQV [K18L]	1.93
FLRGPSGPRFGPRNDKIGHVQNQV [K18G]	2.88
FLRGPSGPRFGPRNDKINHVQNQV [K18N]	2.83
FLRGPSGPRFGPRNDKIPHVQNQV [K18P]	3.1
FLRGPSGPRFGPRNDKIYHVQNQV [K18Y]	2.15
FLRGPSGPRFGPRNDKIIHVQNQV [K18I]	2.31
FLRGPSGPRFGPRNDKITHVQNQV [K18T]	2.47
FLRGPSGPRFGPRNDKIMHVQNQV [K18M]	2.27
FLRGPSGPRFGPRNDKIEHVQNQV [K18E]	3.06
FLRGPSGPRFGPRNDKIHHVQNQV [K18H]	2.73
FLRGPSGPRFGPRNDKIAHVQNQV [K18A]	3.24
FLRGPSGPRFGPRNDKIVHVQNQV [K18V]	2.91
FLRGPSGPRFGPRNDTIKHVQNQV [K16T]	2.74
FLRGPSGPRFGPRNDHIKHVQNQV [K16H]	2.48
FLRGPSGPRFGPRNDEIKHVQNQV [K16E]	3.18
FLRGPSGPRFGPRNDDIKHVQNQV [K16D]	3.13

Variant	protein stability index
FLRGPSGPRFGPRNDAIKHVQNQV [K16A]	3
FLRGPSGPRFGPRNDPIKHVQNQV [K16P]	2.76
FLRGPSGPRFGPRNDCIKHVQNQV [K16C]	2.18
FLRGPSGPRFGPRNDSIKHVQNQV [K16S]	2.81
FLRGPSGPRFGPRNDGIKHVQNQV [K16G]	3.33
FLRGPSGPRFGPRNDVIKHVQNQV [K16V]	2.46
FLRGPSGPRFGPRNDIIKHVQNQV [K16I]	2.15
FLRGPSGPRFGPRNDFIKHVQNQV [K16F]	2.25
FLRGPSGPRFGPRNDRIKHVQNQV [K16R]	2.75
FLRGPSGPRFGPRNDLIKHVQNQV [K16L]	2.34
FLRGPSGPRFGPRNDQIKHVQNQV [K16Q]	3.11
FLRGPSGPRFGPRNDWIKHVQNQV [K16W]	1.86
FLRGPSGPRFGPRNDYIKHVQNQV [K16Y]	2.28
FLRGPSGPRFGPRNDNIKHVQNQV [K16N]	3.18
FLRGPSGPRFGPRNDMIKHVQNQV [K16M]	2.42
FLRGPSGPRFGPRNDKIKHVMNQV [Q21M]	1.85
FLRGPSGPRFGPRNDKIKHVGNQV [Q21G]	2.55
FLRGPSGPRFGPRNDKIKHVFNQV [Q21F]	2.42
FLRGPSGPRFGPRNDKIKHVLNQV [Q21L]	1.75
FLRGPSGPRFGPRNDKIKHVTNQV [Q21T]	2.29
FLRGPSGPRFGPRNDKIKHVCNQV [Q21C]	1.68
FLRGPSGPRFGPRNDKIKHVPNQV [Q21P]	2.91
FLRGPSGPRFGPRNDKIKHVYNQV [Q21Y]	2.11
FLRGPSGPRFGPRNDKIKHVKNQV [Q21K]	2.81

Variant	protein stability index
FLRGPSGPRFGPRNDKIKHVHNQV [Q21H]	3.2
FLRGPSGPRFGPRNDKIKHVWNQV [Q21W]	1.41
FLRGPSGPRFGPRNDKIKHVDNQV [Q21D]	2.93
FLRGPSGPRFGPRNDKIKHVVNQV [Q21V]	2.83
FLRGPSGPRFGPRNDKIKHVNNQV [Q21N]	3.59
FLRGPSGPRFGPRNDKIKHVSNQV [Q21S]	2.47
FLRGPSGPRFGPRNDKIKRVQNQV [H19R]	2.03
FLRGPSGPRFGPRNDKIKLVQNQV [H19L]	2.72
FLRGPSGPRFGPRNDKIKYVQNQV [H19Y]	1.93
FLRGPSGPRFGPRNDKIKVVQNQV [H19V]	2.95
FLRGPSGPRFGPRNDKIKWVQNQV [H19W]	1.57
FLRGPSGPRFGPRNDKIKMVQNQV [H19M]	2.6
FLRGPSGPRFGPRNDKIKQVQNQV [H19Q]	2.42
FLRGPSGPRFGPRNDKIKSVQNQV [H19S]	2.7
FLRGPSGPRFGPRNDKIKFVQNQV [H19F]	1.8
FLRGPSGPRFGPRNDKIKIVQNQV [H19I]	2.55
FLRGPSGPRFGPRNDKIKKVQNQV [H19K]	2.35
FLRGPSGPRFGPRNDKIKAVQNQV [H19A]	2.81
FLRGPSGPRFGPRNDKIKGVQNQV [H19G]	2.86
FLRGPSGPRFGPRNDKIKEVQNQV [H19E]	2.7
FLRGPSGPRFGPRNDKIKTVQNQV [H19T]	1.54
